Experimental findings from patent publication US20160039933A1 (OXFORD BIOTHERAPEUTICS, published 2016) are described below.

For assay [1], the target named is T1, cell-surface human Cadherin-17 (human, UniProt Q12864 23-832).
T1 construct: whole, on cells; Endogenous protein on cells; also called Liver-intestine cadherin; LI-cadherin
T1 sequence (looked up): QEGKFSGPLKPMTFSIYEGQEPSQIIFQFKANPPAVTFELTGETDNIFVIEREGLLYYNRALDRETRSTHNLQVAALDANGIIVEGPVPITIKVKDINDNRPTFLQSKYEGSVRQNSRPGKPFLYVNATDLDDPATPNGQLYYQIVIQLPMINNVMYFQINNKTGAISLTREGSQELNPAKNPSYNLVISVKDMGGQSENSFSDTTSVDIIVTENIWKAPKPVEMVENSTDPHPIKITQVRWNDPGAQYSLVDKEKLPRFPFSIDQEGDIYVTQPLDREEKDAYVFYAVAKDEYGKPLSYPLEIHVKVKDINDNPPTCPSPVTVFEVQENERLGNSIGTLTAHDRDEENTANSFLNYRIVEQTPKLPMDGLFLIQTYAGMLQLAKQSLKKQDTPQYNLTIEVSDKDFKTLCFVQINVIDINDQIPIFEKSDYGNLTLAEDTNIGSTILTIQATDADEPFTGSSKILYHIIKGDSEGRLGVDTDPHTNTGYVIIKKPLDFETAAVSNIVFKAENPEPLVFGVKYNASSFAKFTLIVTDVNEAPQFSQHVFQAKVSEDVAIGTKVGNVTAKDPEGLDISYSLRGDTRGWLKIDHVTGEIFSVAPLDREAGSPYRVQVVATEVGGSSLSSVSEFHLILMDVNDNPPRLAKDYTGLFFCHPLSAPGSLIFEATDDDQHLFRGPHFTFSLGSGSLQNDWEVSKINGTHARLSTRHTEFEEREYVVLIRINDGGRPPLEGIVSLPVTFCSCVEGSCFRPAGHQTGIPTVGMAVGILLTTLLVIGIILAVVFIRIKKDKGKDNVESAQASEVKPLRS
The assay is described as follows: flow cytometry (FACS) on LoVo cells, antibody titration 0.005-10 ug/ml. (In general: A flow cytometer gives signals particle by particle.)

Assay [2] has as its target T2, Cadherin-17 protein (92 kDa) in lysates of colorectal cancer cell lines (human, UniProt Q12864 23-832).
T2 construct: Same natural protein as m15, here denatured on a Western blot (band at 92 kDa); also called CDH17
T2 sequence (looked up): T1 sequence (looked up)
The assay is described as follows: Western blot of colorectal cancer cell line lysates, antibody diluted 1:500. As to the method: Snap frozen cell pellets were lysed in modified RIPA buffer (50 mM Tris-HCl, pH 7.4, 1% NP-40, 0.25% Na-deoxycholate, 150 mM NaCl, 1 mM EDTA) containing protease inhibitors (Roche) and cleared by spinning down at 18,000 g for 15 min at 4 C. The 4×LDS sample loading buffer (Invitrogen Inc.) was added to the cleared lysate to a final concentration of 1×; sample was heated for 10 min at 70° C. and kept at −80° C. afterwards. Before loading on a gel samples were re-heated.
Membrane was incubated with animal-free blocker (Vector) and probed with anti-Cadherin-17 antibody in animal-free blocker at 1:500 dilution, at 4 C, for 14-18 h, rotating. The secondary was anti-mouse DyLight® 488 conjugate (Pierce).
A clear signal was detected at a size corresponding to the Cadherin-17 protein (92 kDa) in 11 of the 14 chosen colorectal cell lines for all 5 Cadherin-17 antibodies (PTA001_A3, PTA001_A4, PTA001_A6, PTA001_A8 and PTA001_A9). […] Cell lines were carefully selected for different genetic backgrounds relevant to the initiation and progression of CRC (RER+=replication error positive tumor phenotype; RER−=replication error deficient tumor phenotype; p53 wild type or mutant and APC wild type or mutant genotype).

B1: PTA001_A4 monoclonal antibody (Fab, V domains shown)
VH: EVQLQQSVAELVKPGASVKMSCKVSGYTLTDHTIHWMKQRPEQGLEWIGYIYPRDGITGYNEKFKGKATLTADTSSSTAYMQLNSLTSEDSAVYFCARWGYSYRNYAYYYDYWGQGTTLTVSS
VL: DIVMSQSPSSLAVSVGEKVTMSCKSSQSLLHSSNQKNYLAWYQQKPGQSPKVLIYWASTRESGVPDRFTGSGSGTDFTLTITSVKSEDLAVYYCQQYYSYPWTFGGGTRLEIKR
For B1, the binding result in assay [1] and in assay [2] was “binds” throughout.
